From publication PMC7036032 come the findings set out here.

As a reminder, the stoichiometry N is a count of units in the complex or per binding partner.

The target of this experiment is T1, CstF77 (human), Q12996.
T1 chain: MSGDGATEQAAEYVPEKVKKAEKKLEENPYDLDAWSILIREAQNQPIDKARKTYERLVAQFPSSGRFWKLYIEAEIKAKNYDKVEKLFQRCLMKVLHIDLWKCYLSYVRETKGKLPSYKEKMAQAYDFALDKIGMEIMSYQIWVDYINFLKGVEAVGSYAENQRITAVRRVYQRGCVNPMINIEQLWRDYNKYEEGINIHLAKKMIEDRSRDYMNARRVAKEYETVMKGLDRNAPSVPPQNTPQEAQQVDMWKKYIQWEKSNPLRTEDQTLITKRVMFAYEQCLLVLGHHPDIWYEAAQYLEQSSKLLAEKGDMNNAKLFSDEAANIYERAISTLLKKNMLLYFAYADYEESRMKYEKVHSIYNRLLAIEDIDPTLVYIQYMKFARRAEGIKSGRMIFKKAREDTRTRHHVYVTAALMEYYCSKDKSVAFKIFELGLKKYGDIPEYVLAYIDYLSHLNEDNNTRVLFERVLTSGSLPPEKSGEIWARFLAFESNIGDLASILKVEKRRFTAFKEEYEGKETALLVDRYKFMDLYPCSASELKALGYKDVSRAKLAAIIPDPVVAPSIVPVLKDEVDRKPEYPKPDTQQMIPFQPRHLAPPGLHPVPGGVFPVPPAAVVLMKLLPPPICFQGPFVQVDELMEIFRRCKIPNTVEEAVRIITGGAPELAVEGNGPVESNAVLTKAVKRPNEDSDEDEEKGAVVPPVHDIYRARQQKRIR
Kind of experiment: cryo-EM structure. The settings on record: remark: other sources report otherwise.

B1: CstF77, Q12996 1-717 (natural protein)
chain: MSGDGATEQAAEYVPEKVKKAEKKLEENPYDLDAWSILIREAQNQPIDKARKTYERLVAQFPSSGRFWKLYIEAEIKAKNYDKVEKLFQRCLMKVLHIDLWKCYLSYVRETKGKLPSYKEKMAQAYDFALDKIGMEIMSYQIWVDYINFLKGVEAVGSYAENQRITAVRRVYQRGCVNPMINIEQLWRDYNKYEEGINIHLAKKMIEDRSRDYMNARRVAKEYETVMKGLDRNAPSVPPQNTPQEAQQVDMWKKYIQWEKSNPLRTEDQTLITKRVMFAYEQCLLVLGHHPDIWYEAAQYLEQSSKLLAEKGDMNNAKLFSDEAANIYERAISTLLKKNMLLYFAYADYEESRMKYEKVHSIYNRLLAIEDIDPTLVYIQYMKFARRAEGIKSGRMIFKKAREDTRTRHHVYVTAALMEYYCSKDKSVAFKIFELGLKKYGDIPEYVLAYIDYLSHLNEDNNTRVLFERVLTSGSLPPEKSGEIWARFLAFESNIGDLASILKVEKRRFTAFKEEYEGKETALLVDRYKFMDLYPCSASELKALGYKDVSRAKLAAIIPDPVVAPSIVPVLKDEVDRKPEYPKPDTQQMIPFQPRHLAPPGLHPVPGGVFPVPPAAVVLMKLLPPPICFQGPFVQVDELMEIFRRCKIPNTVEEAVRIITGGAPELAVEGNGPVESNAVLTKAVKRPNEDSDEDEEKGAVVPPVHDIYRARQQKRIR
Molecule B1 came in with a stoichiometry N of 2.
